The target in one assay is HLA-B*54:01. Put plainly: IEDB peptide-MHC binding, purified MHC/competitive/radioactivity; filed as Kd, often an IC50 or EC50 that approximates it; ≥ and ≤ were set here for values at or beyond the usual limits of such assays.
For another assay, the target named is HLA-B*07:02. The assay is described as above.
For a further assay, the target named is HLA-B*35:01. The description is as above.
In another assay the target is HLA-B*51:01. The description is as above.
The next assay deals with HLA-B*53:01. Described as above.
In the next assay the target is HLA-B*08:01. Described as above.
A further assay deals with HLA-A*68:02. The assay is described as above.
Another assay addresses HLA-A*01:01. The description is as above. The following applies: source organism: Dengue virus 4 Philippines/H241/1956.
For assay [1], the target named is HLA-A*26:01. The description is as above. The following applies: source organism: Dengue virus 4 Philippines/H241/1956.
Assay [2] concerns the target HLA-A*26:01. Put plainly: IEDB peptide-MHC binding, purified MHC/competitive/fluorescence; filed as Kd, often an IC50 or EC50 that approximates it; ≥ and ≤ were set here for values at or beyond the usual limits of such assays.
Another assay concerns the target HLA-A*02:06. As to the kind of experiment: IEDB peptide-MHC binding, purified MHC/competitive/radioactivity; filed as Kd, often an IC50 or EC50 that approximates it; ≥ and ≤ were set here for values at or beyond the usual limits of such assays. Particulars: source organism: Dengue virus 1 Brazil/97-11/1997.
A further assay addresses HLA-A*02:02. The description is as above. The following applies: source organism: Homo sapiens.
Setting [3] is: source organism: Vaccinia virus WR.
[4] abbreviates: source organism: Mammarenavirus choriomeningitidis.
Setting [5] is: source organism: Dengue virus 2 Jamaica/1409/1983.
[6] abbreviates: source organism: Dengue virus 4 Philippines/H241/1956.
Setting [7] is: source organism: Dengue virus 3 Martinique/1243/1999.
Setting [8] is: source organism: Triticum aestivum.
Setting [9] is: source organism: SARS coronavirus Tor2.
Where [10] appears, read: source organism: Lymphocytic choriomeningitis virus (strain Armstrong).
The mark [11] stands for this setting: source organism: Dengue virus 1 Brazil/97-11/1997.

On to DPQNAAVNV, for which the Kd (as a rule, the constant that tells how readily two partners part at equilibrium) was not below 32200 nM with HLA-B*54:01 (setting [3]); not below 77500 nM with HLA-B*07:02 (setting [3]); not below 77400 nM with HLA-B*35:01 (setting [3]); 1250 nM with HLA-B*51:01 (setting [3]); not below 36800 nM with HLA-B*53:01 (setting [3]).
As to CPFLFLMLL, the dissociation constant (Kd) was 142 nM in the assay with HLA-B*54:01 (setting [4]); not below 77400 nM in the assay with HLA-B*07:02 (setting [4]); 1420 nM in the assay with HLA-B*35:01 (setting [4]); not below 45900 nM in the assay with HLA-B*51:01 (setting [4]); 2100 nM in the assay with HLA-B*53:01 (setting [4]).
Turning to NNRVLFNNF, the equilibrium dissociation constant (Kd) with HLA-B*08:01 (setting [3]) turned out to be 773 nM.
As for EVEDYGFGV, the Kd with HLA-A*68:02 (setting [5]) worked out at 7.04 nM.
MVMTTTANWL: the Kd with HLA-A*68:02 (setting [6]) is 6.51 nM.
For MSTYGWNIV, in the assay with HLA-A*68:02 (setting [7]), the Kd came to 39.4 nM.
On to QPFLQPQLPY, for which the Kd is not below 46600 nM with HLA-B*54:01 (setting [8]); 950 nM with HLA-B*07:02 (setting [8]); 28.6 nM in the assay with HLA-B*35:01 (setting [8]); 14500 nM in the assay with HLA-B*51:01 (setting [8]); 4580 nM in the assay with HLA-B*53:01 (setting [8]).
On to LTASLVMLLV, for which the Kd with HLA-A*68:02 (source organism: Dengue virus 4 Dominica/814669/1981) is 30.3 nM.
With PPALNCYWPL, the equilibrium dissociation constant (Kd) with HLA-B*54:01 (setting [9]) is not below 37900 nM; in the assay with HLA-B*07:02 (setting [9]) it was 12700 nM; in the assay with HLA-B*35:01 (setting [9]), not below 57900 nM; with HLA-B*51:01 (setting [9]), 1190 nM; in the assay with HLA-B*53:01 (setting [9]), not below 69900 nM.
With AAGRKSLTL, the dissociation constant Kd with HLA-B*08:01 (setting [5]) was determined as 210 nM.
On to MVRILIGFLV, for which, in the assay with HLA-A*68:02 (setting [6]), the dissociation constant Kd came out at 401 nM.
As to DPEKFNARMA, the Kd with HLA-B*54:01 (setting [3]) was 1010 nM; with HLA-B*07:02 (setting [3]) it was not below 53700 nM; with HLA-B*35:01 (setting [3]) it was not below 69900 nM; with HLA-B*51:01 (setting [3]), not below 40500 nM; with HLA-B*53:01 (setting [3]) it was not below 44700 nM.
The matching figures for EPLSPDTCLL: not below 61300 nM, not below 59700 nM, 281 nM, not below 69600 nM and 289 nM.
In the case of ETNMITLLV, the figures for the equilibrium dissociation constant (Kd) in the assay with HLA-A*01:01, in the assay with HLA-A*26:01 [1] and with HLA-A*68:02 (setting [6]) were 209 nM, 338 nM and 7.24 nM, respectively.
For TSNHGVTATI, the equilibrium dissociation constant (Kd) in the assay with HLA-A*68:02 (source organism: Dengue virus 4 Thailand/0348/1991) amounted to 129 nM.
With MPEWANFKF, the Kd with HLA-B*54:01 (setting [10]) is 1370 nM; with HLA-B*07:02 (setting [10]) it was 769 nM; in the assay with HLA-B*35:01 (setting [10]), 9.29 nM; with HLA-B*51:01 (setting [10]), not below 28200 nM; with HLA-B*53:01 (setting [10]), 13.5 nM.
ELILDRGYY returned a Kd with HLA-A*26:01 [2] (source organism: Bacillus cereus G9241) of 211 nM.
With DVLRQYVLM, the Kd with HLA-A*26:01 [2] (source organism: Escherichia coli) came out at 2140 nM.
As to EPVVKDKIKL, the Kd was not below 42700 nM with HLA-B*54:01 (setting [3]); not below 31500 nM with HLA-B*07:02 (setting [3]); not below 69900 nM in the assay with HLA-B*35:01 (setting [3]); not below 69600 nM with HLA-B*51:01 (setting [3]); not below 54200 nM in the assay with HLA-B*53:01 (setting [3]).
As for DTVTYKCPHI, the Kd in the assay with HLA-A*68:02 (setting [7]) was determined as 89.7 nM.
Regarding LPYVGDTSMM, the equilibrium dissociation constant (Kd) in the assay with HLA-B*54:01 (setting [3]) was not below 69900 nM; in the assay with HLA-B*07:02 (setting [3]), 828 nM; with HLA-B*35:01 (setting [3]) it was 816 nM; with HLA-B*51:01 (setting [3]), 3050 nM; with HLA-B*53:01 (setting [3]), 8530 nM.
As for LTYQNKVVRV, in the assay with HLA-A*68:02 (setting [5]), the dissociation constant Kd came out at 27.9 nM.
As to FRRLTSREVL, the Kd in the assay with HLA-B*08:01 (setting [11]) turned out to be 104 nM.
Consider YPLGQGSF, for which the Kd in the assay with HLA-B*54:01 (setting [8]) was not below 53800 nM; with HLA-B*07:02 (setting [8]), 5550 nM; with HLA-B*35:01 (setting [8]), 1520 nM; with HLA-B*51:01 (setting [8]), 1140 nM; in the assay with HLA-B*53:01 (setting [8]), 1660 nM.
As for MSIPATLFV, the Kd with HLA-A*02:06 was 12.1 nM; in the assay with HLA-A*68:02 (setting [11]), 0.63 nM.
For SPKFTTSLSL, the Kd with HLA-B*54:01 (setting [9]) is not below 28800 nM; in the assay with HLA-B*07:02 (setting [9]) it was 8.39 nM; in the assay with HLA-B*35:01 (setting [9]), 7920 nM; in the assay with HLA-B*51:01 (setting [9]), 1090 nM; with HLA-B*53:01 (setting [9]), 1300 nM.
Consider KLREYEAAL, for which the results for the equilibrium dissociation constant (Kd) with HLA-A*02:02 and in the assay with HLA-A*68:02 (source organism: Homo sapiens) were 27.8 nM and not below 27900 nM, respectively.
On to LPHIIDEVM, for which the Kd in the assay with HLA-B*54:01 (setting [4]) was 9010 nM; in the assay with HLA-B*07:02 (setting [4]) it was 154 nM; with HLA-B*35:01 (setting [4]), 15 nM; with HLA-B*51:01 (setting [4]) it was 9360 nM; with HLA-B*53:01 (setting [4]), 842 nM.
On to GFMRFFQLL, for which the dissociation constant (Kd) in the assay with HLA-B*08:01 (setting [3]) was 2.39 nM.

These data come from the Immune Epitope Database (IEDB).
